The values below come from the RNAGym collection of RNA variant scans (doi:10.1093/molbev/msab373).

The chains are these.
B1: Azoarcus group I ribozyme (parent)
chain: GUGCCUUGCGCCGGGAAACCACGCAAGGGAUGGUGUCAAAUUCGGCGAAACCUAAGCGCCCGCCCGGGCGUAUGGCAACGCCGAGCCAAGCUUCGGCGCCUGCGCCGAUGAAGGUGUAGAGACUAGACGGCACCCACCUAAGGCAAACGCUAUGGUGAAGGCAUAGUCCAGGGAGUGGCGAAAGUCACACAAACCGG

The variants in the data set derive from B1. The data set is described as follows: reverse-splicing fitness (ratio to wild type); higher = more active; in vitro selection; Mg2+ level not given. In short, it runs like this: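 An in vitro group I ribozyme library with randomized positions was T7-transcribed and gel-purified. In triplicate, 10 pmol RNA in EPPS pH 7.5 was reacted with 50 pmoles of a 30-nt RNA substrate for 1 h at 37 °C across several added MgCl2 levels (1–48 mM), then stopped with EDTA. Products were reverse transcribed from a substrate-complementary primer, PCR-amplified and sequenced (HiSeq 4000). Fitness is a variant's read proportion after selection over that before, normalised to wild type.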
On to C82G A111C A145G C150G C169G U176C, for which the reverse-splicing fitness is 0.0117. Regarding C82G A111C A145G C150G C169G U176G, the reverse-splicing fitness turned out to be 0.00603. With C82G A111C A120U A145G C150A C169G U176A the figure was 0.00649; with C82G A111C A120U A145G C150A C169G U176C, 0.00534. On to C82G A111C A120U A145G C150A C169G U176G, for which the reverse-splicing fitness is 0.00277. For C82G A111C A120U A145G C150U C169U U176G, the reverse-splicing fitness came to 0.00262. Regarding C82G A111C A120U A145G C150U C169U U176C, the reverse-splicing fitness was found to be 0.00492.

With C82G A111C A120U A145G C150U C169U U176A, the reverse-splicing fitness amounted to 0.00549. Turning to C82G A111C A145C C150G C169A U176A, the reverse-splicing fitness was found to be 0.00825. On to C82G A111C A145C C150G C169A U176C, for which the reverse-splicing fitness turned out to be 0.00828. With C82G A111C A145C C150G C169A U176G the figure was 0.00732.

Take C82G A111C A120U A145G C150A C169U U176A: the reverse-splicing fitness was determined as 0.00632.

For the variant C82G A111C A120U A145G C150A C169U U176G, the reverse-splicing fitness is 0.00259. With C82G A111C A120U A145G C150A C169U U176C the figure was 0.00449; with C82G A111C A145C C169G U176G, 0.00663; with C82G A111C A145C C169G U176A, 0.0274.

For the variant C82G A111C A145C C169G U176C, the reverse-splicing fitness was 0.0197. Take C82G A111C A120U A145C C150U U176C: the reverse-splicing fitness stood at 0.00491. With C82G A111C A120U A145C C150U U176G the figure was 0.00325. The figure for C82G A111C A120U A145C C150U U176A is 0.00523; for C82G A111C A120U C169A it is 0.00474. The figure for C82G A111C A120U C169G is 0.00478; for C82G A111C A120U C169U it is 0.00571; for C82G A111C A145C C150A C169U U176C it is 0.0122. With C82G A111C A145C C150A C169U U176A, the reverse-splicing fitness amounted to 0.0135. The figure for C82G A111C A145C C150A C169U U176G is 0.0092; for C82G A111C A120U C150A C169U it is 0.00505; for C82G A111C A120U C150A C169G it is 0.0046.

Turning to C82G A111C A120U C150A C169A, the reverse-splicing fitness stood at 0.00547.

Consider C82G A111C A120U A145U C150G C169A U176G, for which the reverse-splicing fitness turned out to be 0.00276.

Turning to C82G A111C A120U A145U C150G C169A U176C, the reverse-splicing fitness is 0.00308.

Turning to C82G A111C A120U A145U C150G C169A U176A, the reverse-splicing fitness is 0.0036. On to C82G A111C A120U A145G C150U C169G U176G, for which the reverse-splicing fitness is 0.00259. Regarding C82G A111C A120U A145G C150U C169G U176A, the reverse-splicing fitness came to 0.00573. With C82G A111C A120U A145G C150U C169G U176C the figure was 0.00437; with C82G A111C A120U A145G C150U C169A U176A, 0.00776.

As to C82G A111C A120U A145G C150U C169A U176C, the reverse-splicing fitness was determined as 0.00436.

As to C82G A111C A120U A145G C150U C169A U176G, the reverse-splicing fitness was 0.00301. Regarding C82G A111C A120U A145U C169A U176G, the reverse-splicing fitness came out at 0.00195.

In the case of C82G A111C A120U A145U C169A U176A, the reverse-splicing fitness is 0.00261.

Take C82G A111C A120U A145U C169A U176C: the reverse-splicing fitness is 0.00242. The figure for C82G A111C A120U A145G C150G C169U U176G is 0.00438.

As for C82G A111C A120U A145G C150G C169U U176A, the reverse-splicing fitness worked out at 0.00988. Turning to C82G A111C A120U A145G C150G C169U U176C, the reverse-splicing fitness amounted to 0.00748. With C82G A111C A145C C150U C169A U176A, the reverse-splicing fitness came out at 0.0156. Turning to C82G A111C A145C C150U C169A U176G, the reverse-splicing fitness was determined as 0.00839. The figure for C82G A111C A145C C150U C169A U176C is 0.0132; for C82G A111C A120U A145U C150U U176G it is 0.00386. The figure for C82G A111C A120U A145U C150U U176A is 0.00941; for C82G A111C A120U A145U C150U U176C it is 0.013; for C82G A111C A145G C150A U176C it is 0.0396.

For C82G A111C A145G C150A U176A, the reverse-splicing fitness turned out to be 0.0244. As for C82G A111C A145G C150A U176G, the reverse-splicing fitness was 0.0116. C82G A111C A120U C150U U176A: the reverse-splicing fitness worked out at 0.00878. The figure for C82G A111C A120U C150U U176G is 0.00397. As to C82G A111C A120U C150U U176C, the reverse-splicing fitness stood at 0.0132.

As for C82G A111C A145C C150U U176G, the reverse-splicing fitness is 0.0162. In the case of C82G A111C A145C C150U U176A, the reverse-splicing fitness is 0.0341. With C82G A111C A145C C150U U176C the figure was 0.044.

As to C82G A111C A120U C150G U176G, the reverse-splicing fitness turned out to be 0.00279. With C82G A111C A120U C150G U176C the figure was 0.00675; with C82G A111C A120U C150G U176A, 0.00422; with C82G A111C A120U A145G C150A C169G, 0.0054.

Turning to C82G A111C A120U A145G C150A C169A, the reverse-splicing fitness was determined as 0.00787. On to C82G A111C A120U A145G C150A C169U, for which the reverse-splicing fitness was 0.00514. In the case of C82G A111C A120U A145U C150U C169U U176G, the reverse-splicing fitness was determined as 0.00235. As to C82G A111C A120U A145U C150U C169U U176C, the reverse-splicing fitness was found to be 0.00311.

Regarding C82G A111C A120U A145U C150U C169U U176A, the reverse-splicing fitness was determined as 0.0031. With C82G A111C A145C C150G C169U the figure was 0.00892. With C82G A111C A145C C150G C169G, the reverse-splicing fitness worked out at 0.00675. Regarding C82G A111C A145C C150G C169A, the reverse-splicing fitness was found to be 0.00941. With C82G A111C A120U A145C C150U C169U U176A the figure was 0.00337.

In the case of C82G A111C A120U A145C C150U C169U U176C, the reverse-splicing fitness was 0.00256.

As to C82G A111C A120U A145C C150U C169U U176G, the reverse-splicing fitness amounted to 0.00249. Take C82G A111C A145C C150U: the reverse-splicing fitness came out at 0.0631.

For C82G A111C A145C C150G, the reverse-splicing fitness is 0.0271. The figure for C82G A111C A145C C150A is 0.016; for C82G A111C A145G C150A C169U U176A it is 0.0153; for C82G A111C A145G C150A C169U U176G it is 0.00863. The figure for C82G A111C A145G C150A C169U U176C is 0.0161. With C82G A111C A120U A145C C169U U176A the figure was 0.00293; with C82G A111C A120U A145C C169U U176G, 0.00214. With C82G A111C A120U A145C C169U U176C, the reverse-splicing fitness was 0.00289.
